The record followed here is patent US10577406B2, “FKBP-L polypeptides and uses in angiogenesis-mediated disorders” (ALMAC DISCOVERY LIMITED, priority 2006, dated 2020).

Where two headings read alike, the source gives them in different places.

By IC50 is commonly meant the midpoint of a concentration-inhibition curve.

One experiment relates to rat aortic ring. The format is cell-based, Male Wistar rats. Here is the method:
Male Wistar rats were euthanised and the thoracic aorta was aseptically removed and sectioned into 1 cm thick rings. The rings were washed ten times in sterile medium to remove any bacteria and embedded into Matrigel on 24 well plates. The wells were supplemented with 2 ml of medium and increasing concentrations of full-length His-tagged recombinant FKBP-L protein (SEQ ID 1). The plate was incubated for 8 days and post incubation the Matrigel and rings were fixed in 4% PBS buffered paraformaldehyde and stored in PBS. The extent of vessel development was blindly assessed microscopically by an independent investigator and quantified using a calibrated eyepiece graticule (1 mm/100 μm graduation) at 20× magnification (Olympus BX 50). The extent of vessel length, maximum vessel length and number of vessels in each field of view was measured and compared to time matched sham controls and the percent (%) inhibition calculated. Male Wistar rats were euthanised and the thoracic aorta was aseptically removed and sectioned into 1 cm thick rings. The rings were washed ten times in sterile medium to remove any bacteria and embedded into Matrigel on 24 well plates. The wells were supplemented with 2 ml of medium and increasing concentrations of FKBP-L 24mer (SEQ ID NO: 10) and FKBP-L 1-57mer (SEQ ID NO: 6) and recombinant FKBP-L (SEQ ID NO:1). The plate was blindly assessed by an independent investigator and quantified using a calibrated eyepiece graticule (1 mm/100 μm graduation) at 20× magnification (Olympus BX 50). The extent of vessel length, maximum vessel length and number of vessels in each field of view was measured and compared to time matched sham controls and the % inhibition calculated. In order to determine whether the FKBP-L 24mer exerted a permanent or static effect on endothelial cell sprouting the rat aortic ring assay was used. Male Wistar rats were euthanised and the thoracic aorta was aseptically removed and sectioned into 1 cm thick rings. The rings were washed ten times in sterile medium to remove any bacteria and embedded into Matrigel on 24 well plates. The wells were supplemented with 2 ml of medium. The plates were incubated for up to 15 days. Each day the Matrigel rings were photographed and returned to their incubator. Two further experiments were carried out: (A) addition of FKBP-L 24mer to the medium after the vessels had grown for seven days; and (B) addition of FKBP-L 24mer to the medium at the initial embedding stage, with subsequent removal after seven days and replacement with fresh medium for a further seven days. The extent of vessel development was quantified using a calibrated eyepiece graticule (1 mm/100 μm graduation) at 20× magnification (Olympus BX 50), and measured electronically using Lucia imaging software. Vessel length was measured and compared to time matched sham controls and the percent (%) inhibition calculated.

For experiment [1], the system named is PC3 (prostate tumor cell line; CD44 +ve). As to the kind of experiment: tumor cell migration, wound closure assay, PC3. The note with it: for effect on tumor cell migration: PC3. The format is cell-based. As to the method:
In these experiments, the effect of recombinant FKBP-L on tumor cell migration was assessed. The in vitro migration assay used in these studies is a modified version of the method described by Ashton et al (1999) see supra. PC3, MDA231, and HT29 tumor cells were plated into individual chambers on a glass slide and grown to 90% confluence overnight. The medium was removed and the monolayers wounded. The monolayer was re-supplemented with fresh medium and the required volume of His-tagged recombinant FKBP-L protein (SEQ ID NO: 1) was added to give the final concentrations shown. The monolayers were incubated for 24 hours and then fixed in 4% PBS buffered paraformaldehyde.
The extent of “wound” closure was blindly assessed microscopically by an independent investigator and quantified using a calibrated eyepiece graticule (1 mm/100 μm graduation) at 20× magnification (Olympus BX 50). The extent of closure in the FKBP-L treated slides was compared to time matched sham-treated controls and the percent inhibition of wound closure compared to time matched controls calculated.
The in vitro migration assay used in these studies is a modified version of the method described by Ashton et al. (1999) see supra. PC3 (prostate tumor cell line; CD44 positive; CD44 +ve), MDA231 (breast tumor cell line; CD44 +ve), HT29 (Colorectal tumor cell line; CD44 +ve), MCF-7 (breast tumor cell line; CD44 negative; CD44 −ve) and DU145 (prostate tumor cell line; CD44 −ve) were plated into individual chambers on a glass slide and grown to 90% confluence overnight. The medium was removed and the monolayers wounded. […] The monolayers were incubated for 24 h and then fixed in 4% PBS buffered paraformaldehyde.
The extent of “wound” closure was blindly assessed microscopically by an independent investigator and quantified using a calibrated eyepiece graticule (1 mm/100 μm graduation) at 20× magnification (Olympus BX 50). The extent of closure in the FKBP-L treated slides was compared to time matched sham treated controls and the % inhibition of wound closure compared to time matched controls calculated.
PC3 cells were transfected for 72 h with either sicontrol non-targeting siRNA (SCR siRNA) (Dharmacon, Cat #D-001210-01-05) or CD44 targeted siRNA (CD44siRNA) (Dharmacon, Cat #009999). Briefly, 1.2×10^6 PC3 cells were seeded into two P90 dishes and incubated at 37° C. for 24 h. To transfect, 150 μl of the either sicontrol non-targeting siRNA or CD44 targeting siRNA (2 μM) was added to 450 μl of serum free medium (Tube 1). […] The monolayer was fixed after a further 24 h and the extent of wound closure was blindly assessed using a calibrated graticule. Percent inhibition of wound closure in FKBP-L-treated monolayers compared to untreated monolayers was calculated. […]

For “H-QIRQQPRDPPTETLELEVSPDPAS-OH [FKBP-L 24mer]”, 0.0002 nM corresponded to half-maximal inhibition in the experiment with rat aortic ring (IC50). Besides, the “vessel development after addition at day seven” value in the experiment with rat aortic ring (10^−9 M added after vessels had developed for seven days, vs time matched controls) was “complete inhibition of vessel development”. Moreover, the “vessel development, exposure from initial embedding” value in the experiment on rat aortic ring (medium supplemented from embedding, seven days) is “almost completely inhibited vessel development”. The “vessel development after removal of the peptide” value with rat aortic ring (supplemented medium removed after seven days, fresh medium added) is given as “continued growth of vessels”. Further, in experiment [1] (10^−14-10^−7 M, 24 h), the “effect on tumor cell migration” value is “can inhibit”.

B1: full length recombinant FKBP-L: recombinant full length his-tagged FKBP-L protein (SEQ ID NO: 1) expressed in BL21 (DE3) (protein, listed as Homo sapiens)
chain: MRGSHHHHHHGMASMTGGQQMGRDLYDDDDKDRWGSMETPPVNTIGEKDTSQPQQEWEKNLRENLDSVIQIRQQPRDPPTETLELEVSPDPASQILEHTQGAEKLVAELEGDSHKSHGSTSQMPEALQASDLWYCPDGSFVKKIVIRGHGLDKPKLGSCCRVLALGFPFGSGPPEGWTELTMGVGPWREETWGELIEKCLESMCQGEEAELQLPGHTGPPVGLTLASFTQGRDSWELETSEKEALAREERARGTELFRAGNPEGAARCYGRALRLLLTLPPPGPPERTVLHANLAACQLLLGQPQLAAQSCDRVLEREPGHLKALYRRGVAQAALGNLEKATADLKKVLAIDPKNRAAQEELGKVVIQGKNQDAGLAQGLRKMFG
modifications: His tag
As for B1, the “inhibition of number of vessels formed” value in the experiment with rat aortic ring (500 ngml^−1 (optimal), 8 days) was 65%. In addition, in the experiment with rat aortic ring (1000 ngml^−1, 8 days), the “inhibition of maximum vessel length compared to time matched controls” value is reported as 70% and the “inhibition of mean vessel length compared to time matched controls” value is listed as 63%. Moreover, the IC50 in the experiment with rat aortic ring (read-out: IC50, number of vessels) was determined as 1.56 nM. Besides, the “effect on tumor cell migration” value in experiment [1] (24 hours) was “inhibits tumor cell migration in a dose-dependent manner”. Also, the “effect on migration of CD44 siRNA treated cells” value in experiment [1] (PC3 transfected with CD44 targeted siRNA, 1500 ng/ml, 24 h) is “no effect”. In addition, the “inhibition of migration (wound closure) compared to untreated monolayers” value in experiment [1] (PC3 transfected with non-targeting SCR siRNA, 1500 ng/ml, 24 h) is 21.7%.
